Data: paper PMC7895908
pKd: −log10 of the molar value.

Columns and labels:
Assay in all cases: ITC
YFP = YFP (UniProt P42212)
[1] = target: mEGFP (monomeric enhanced GFP) (UniProt P42212)
mVenus = mVenus (UniProt P42212)
sfGFP (super folder GFP) = sfGFP (super folder GFP) (UniProt P42212)

Sequence: GGGAGCUUCUGGACUGCGAUGGGAGCACGAAACGUCGUGGCGCAAUUGGGUGGGGAAAGUCCUUAAAAGAGGGCCACCACAGAAGCUCCC [free RNA aptamer against GFP family]
- pKd (YFP): 8.40
- pKd [1]: 8.30
- pKd (mVenus): 8.30
- pKd (sfGFP (super folder GFP)): 7.89
